Laboratory results published in the supplement of paper PMC10567573.

B1: HSP90AB1 (parent)
chain: TLRQKAEADKNDKAVKDLVVLLFE

Variants of: B1
Assay: protein stability index of a GFP-peptide fusion (GPS, HEK-293T) (PSI 1-6); higher = more stable
Conditions: c terminus: a fixed tail appended
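Further: lentivirally expressed fusions sorted by FACS into six bins by GFP to DsRed ratio, PSI derived from sequencing read proportions per bin multiplied by bin number.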

| Variant | protein stability index |
| --- | --- |
| K16C | 2.19 |
| K16W | 3.02 |
| K16T | 2.99 |
| K16Y | 2.24 |
| K16E | 3.06 |
| K16F | 3.28 |
| K16S | 2.92 |
| K16Q | 3.75 |
| K16N | 3.44 |
| K16M | 2.86 |
| K16V | 3.65 |
| K16A | 2.87 |
| K16I | 2.24 |
| K16D | 3.36 |
| K16H | 3.29 |
| K16P | 2.65 |
| Q4P | 3.06 |
| Q4S | 3.21 |
| Q4N | 2.71 |
| Q4W | 2.71 |
| Q4H | 2.37 |
| Q4R | 2.26 |
| Q4D | 3.32 |
| Q4E | 3.39 |

| Variant | protein stability index |
| --- | --- |
| Q4G | 3.06 |
| Q4Y | 2.37 |
| Q4M | 2.48 |
| Q4K | 3.26 |
| Q4F | 2.58 |
| Q4A | 2.63 |
| Q4C | 2.51 |
| Q4I | 2.41 |
| A14F | 2.02 |
| A14K | 3.1 |
| A14N | 2.56 |
| A14G | 3.17 |
| A14T | 2.57 |
| A14H | 2.79 |
| A14R | 2.62 |
| A14E | 3.64 |
| A14S | 2.26 |
| A14I | 3 |
| A14P | 2.99 |
| A14C | 2.35 |
| A14D | 2.58 |
| A14W | 2.68 |
| A14Q | 2.92 |
| A14M | 2.73 |

| Variant | protein stability index |
| --- | --- |
| A14L | 2.63 |
| A14V | 2.44 |
| D17V | 1.6 |
| D17R | 1.98 |
| D17T | 1.95 |
| D17H | 2.52 |
| D17E | 2.96 |
| D17N | 2.69 |
| D17W | 2.62 |
| D17A | 1.99 |
| D17I | 2.35 |
| D17L | 1.49 |
| D17S | 2.58 |
| D17G | 2.26 |
| D17C | 1.83 |
| D17F | 1.51 |
| D17Q | 2.04 |
| D17K | 2.14 |
| D17Y | 1.91 |
| D17P | 2.87 |
| E7C | 2.28 |
| E7Q | 1.9 |
| E7K | 2 |
| E7R | 2.29 |

| Variant | protein stability index |
| --- | --- |
| E7S | 2.67 |
| E7G | 2.24 |
| E7W | 1.81 |
| E7M | 2.48 |
| E7I | 2.63 |
| E7V | 2.63 |
| E7A | 2.67 |
| E7N | 2.72 |
| E7D | 2.79 |
| E7L | 2.54 |
| E7P | 2.58 |
| E7Y | 1.79 |
| K10Q | 2.98 |
| K10G | 2.63 |
| K10F | 2.53 |
| K10N | 2.98 |
| K10T | 2.92 |
| K10W | 2.52 |
| K10L | 2.61 |
| K10A | 3.44 |
| K10H | 2.69 |
| K10S | 3.56 |
| K10D | 3.11 |
| K10I | 3.06 |

| Variant | protein stability index |
| --- | --- |
| K10P | 3.68 |
| K10R | 3.29 |
| K10E | 2.73 |
| K10M | 2.65 |
| K10V | 2.57 |
| A8W | 3.03 |
| A8E | 3.16 |
| A8F | 2.89 |
| A8N | 3.35 |
| A8V | 3.27 |
| A8H | 2.85 |
| A8P | 2.21 |
| A8Q | 3.24 |
| A8D | 3.57 |
| A8C | 2.87 |
| A8L | 2.38 |
| A8R | 2.87 |
| A8G | 3.9 |
| K13W | 1.73 |
| K13Y | 2.2 |
| K13E | 3.39 |
| K13D | 2.63 |
| K13M | 2.75 |
| K13C | 2.84 |

| Variant | protein stability index |
| --- | --- |
| K13I | 2.47 |
| K13H | 2.46 |
| K13V | 2.91 |
| K13Q | 3.21 |
| K13P | 3.22 |
| K13G | 2.77 |
| K13N | 2.85 |
| K13S | 2.99 |
| K13T | 2.96 |
| K13A | 3.19 |
| K13F | 1.93 |
| K5T | 3.15 |
| K5D | 3.88 |
| K5E | 3.38 |
| K5Q | 4.01 |
| K5V | 3.24 |
| K5H | 3.01 |
| K5L | 3.1 |
| K5F | 2.75 |
| K5Y | 3.26 |
| K5R | 3 |
| K5C | 2.85 |
| K5M | 3.48 |
| K5S | 3.36 |

| Variant | protein stability index |
| --- | --- |
| K5G | 3.87 |
| K5I | 3.03 |
| K5A | 3.12 |
| L21Y | 2.41 |
| L21W | 1.73 |
| L21D | 4.26 |
| L21P | 4.61 |
| L21G | 3.63 |
| L21F | 2.35 |
| L21K | 2.91 |
| L21Q | 3.52 |
| L21E | 3.98 |
| L21N | 3.89 |
| L21S | 3.44 |
| L21T | 3.5 |
| L21A | 2.67 |
| L21R | 3.31 |
| L21V | 3.06 |
| L21I | 2.35 |
| D9C | 2.73 |
| D9V | 2.38 |
| D9Y | 2.87 |
| D9T | 2.35 |
